Laboratory results from PMC5291321 (Science (New York, N.Y.), 2016).
Where two headings read alike, the source gives them in different places.

T1: full-length GluD2 (GluD2FL) (human, UniProt O43424 24-1007)
T1 sequence (looked up): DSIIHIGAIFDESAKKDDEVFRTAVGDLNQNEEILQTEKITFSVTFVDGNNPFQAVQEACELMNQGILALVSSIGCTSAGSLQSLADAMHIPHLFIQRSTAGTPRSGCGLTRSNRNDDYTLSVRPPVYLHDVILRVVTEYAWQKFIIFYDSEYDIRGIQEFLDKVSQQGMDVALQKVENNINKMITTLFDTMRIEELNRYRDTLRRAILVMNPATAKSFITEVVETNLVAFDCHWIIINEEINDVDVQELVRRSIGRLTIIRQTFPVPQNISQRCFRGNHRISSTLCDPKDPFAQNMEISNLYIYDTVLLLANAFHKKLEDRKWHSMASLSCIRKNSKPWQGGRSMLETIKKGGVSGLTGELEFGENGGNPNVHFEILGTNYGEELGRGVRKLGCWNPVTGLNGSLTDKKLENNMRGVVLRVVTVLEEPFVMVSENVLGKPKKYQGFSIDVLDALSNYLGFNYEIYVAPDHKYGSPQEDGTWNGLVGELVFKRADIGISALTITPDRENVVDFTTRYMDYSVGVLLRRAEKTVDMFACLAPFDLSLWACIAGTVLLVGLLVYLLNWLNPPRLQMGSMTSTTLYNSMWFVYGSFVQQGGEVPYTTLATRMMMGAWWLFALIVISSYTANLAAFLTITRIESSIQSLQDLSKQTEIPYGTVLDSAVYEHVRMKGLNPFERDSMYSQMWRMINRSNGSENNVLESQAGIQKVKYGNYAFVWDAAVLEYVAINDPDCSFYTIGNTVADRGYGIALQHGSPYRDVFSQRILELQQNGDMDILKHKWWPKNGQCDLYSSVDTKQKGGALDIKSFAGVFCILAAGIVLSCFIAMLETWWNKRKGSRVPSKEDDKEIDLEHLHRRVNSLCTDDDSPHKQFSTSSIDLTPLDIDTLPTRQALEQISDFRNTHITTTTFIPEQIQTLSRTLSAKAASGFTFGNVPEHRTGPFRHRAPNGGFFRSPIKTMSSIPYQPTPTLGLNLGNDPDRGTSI


Columns and labels:
[1] = target: T1, full-length GluD2 (GluD2FL); experiment: SPR
crystal structure [2] = target: the molecule itself; experiment: crystal structure
crystal structure [3] = target: the molecule itself; experiment: crystal structure; remark: listed apart in the source

| Binder | Kd [1] | stoichiometry N (crystal structure [2]) | stoichiometry N (crystal structure [3]) |
| --- | --- | --- | --- |
| full-length Cbln1 (Cbln1FL) (natural protein, human, UniProt P23435 22-193, looked up) QNETEPIVLEGKCLVVCDSNPTSDPTGTALGISVRSGSAKVAFSAIRSTNHEPSEMSNRTMIIYFDQVLVNIGNNFDSERSTFIAPRKGIYSFNFHVVKVYNRQTIQVSLMLNGWPVISAFAGDQDVTREAASNGVLIQMEKGDRAYLKLERGNLMGGWKYSTFSGFLVFPL | ~125 nM | – | – |
| GluD2 amino-terminal domain (GluD2ATD) (domain or fragment, human) DSIIHIGAIFDESAKKDDEVFRTAVGDLNQNEEILQTEKITFSVTFVDGNNPFQAVQEACELMNQGILALVSSIGCTSAGSLQSLADAMHIPHLFIQRSTAGTPRSGCGLTRSNRNDDYTLSVRPPVYLHDVILRVVTEYAWQKFIIFYDSEYDIRGIQEFLDKVSQQGMDVALQKVENNINKMITTLFDTMRIEELNRYRDTLRRAILVMNPATAKSFITEVVETNLVAFDCHWIIINEEINDVDVQELVRRSIGRLTIIRQTFPVPQNISQRCFRGNHRISSTLCDPKDPFAQNMEISNLYIYDTVLLLANAFHKKLEDRKWHSMASLSCIRKNSKPWQGGRSMLETIKKGGVSGLTGELEFGENGGNPNVHFEILGTNYGEELGRGVRKLGCWNPVTGLNGSLTDKKLENNMRG | – | 4 | 2 |
| mouse GluD1 amino-terminal domain (GluD1ATD) (domain or fragment) DSIIHIGAIFEENAAKDDRVFQLAVSDLSLNDDILQSEKITYSIKVIEANNPFQAVQEACDLMTQGILALVTSTGCASANALQSLTDAMHIPHLFVQRNPGGSPRTACHLNPSPDGEAYTLASRPPVRLNDVMLRLVTELRWQKFVMFYDSEYDIRGLQSFLDQASRLGLDVSLQKVDKNISHVFTSLFTTMKTEELNRYRDTLRRAILLLSPQGAHSFINEAVETNLASKDSHWVFVNEEISDPEILDLVHSALGRMTVVRQIFPSAKDNQKCMRNNHRISSLLCDPQEGYLQMLQISNLYLYDSVLMLANAFHRKLEDRKWHSMASLNCIRKSTKPWNGGRSMLDTIKKGHITGLTGVMEFREDSSNPYVQFEILGTTYSETFGKDMRKLATWDSEKGLNGSLQERPMGSRLQG | – | – | 2 |
